Experiment [1] concerns the target T1, recombinant human PD-1-his (Sino biological, #10377-H08H) (human, UniProt Q15116 25-167).
T1 construct: Bought protein; also called Human PD-1-his protein; not shown: his tag
Kind of experiment: SPR (Biacore) as in Example 2. (In general: In SPR one partner is held on a chip, and binding of the other changes the refractive index at the surface.)

The target of experiment [2] is T2, biotin-labeled human PD-1 Fc protein (human, biotin-labeled (sites not given)).
T2 construct: also called PD-1-Fc-biotin
Briefly: PD1/PDL1 ligand blocking ELISA (coated PD-L1-Fc). Background: An ELISA detects its analyte on a solid surface through an enzyme-linked reagent.

For experiment [3], the target named is T1, recombinant human PD-1-his (Sino …). Kind of experiment: SPR (Biacore).
Experiment [4] addresses T3, cynomolgus monkey PD-1-his protein (Acro biosystems, #PD-1-C5223) (cynomolgus monkey, UniProt B0LAJ3 25-170).
T3 construct: Bought protein; also called Cynomolgus PD-1; Cynomolgus PD1
Briefly: SPR (Biacore).

The target in experiment [5] is T2, biotin-labeled human PD-1 Fc protein. Kind of experiment: benchmark blocking ELISA (coated Nivolumab as competitor). How it is done: (§1) The next day, plates were washed with wash buffer, and blocked with 5% non-fatty milk in PBST for 2 hours at 37° C. […] Plates were finally washed using wash buffer. TMB was added and the reaction was stopped using 1M H_2SO_4, and the absorbance was read at 450 nm. Data were analyzed using Graphpad Prism software and $IC50$ values were reported.

The target in experiment [6] is T4, human PD-1 on PD-1 Effector Cell Line (Genscript, GS-J2/PD-1) (human, UniProt Q15116 25-288). Briefly: cell-based or functional assay.
Experiment [7] concerns the target T2, biotin-labeled human PD-1 Fc protein. Briefly: binding capture ELISA, biotin PD-1-Fc.
Experiment [8] shares this target. Kind of experiment: binding capture ELISA (goat anti-human IgG Fab capture), biotin PD-1-Fc.
Experiment [9] concerns the target T1, recombinant human PD-1-his (Sino …). Briefly: SPR (Biacore T200), antibody captured, antigen flowed. From the text: (§2) Briefly, goat […] (GE healthcare, Cat #BR100839, Human Antibody Capture Kit) was covalently linked to a CM5 chip (carboxy methyl dextran coated chip) via primary amines, using a standard amine coupling kit (GE healthcare, Pittsburgh, PA, USA) provided by Biacore. Unreacted moieties on the biosensor surface were blocked with ethanolamine. […] Then, recombinant human PD-1-his (Sino biological, #10377-H08H) or cynomolgus monkey PD-1-his protein (Acro biosystems, #PD-1-C5223) in HBS EP buffer (provided by Biacore) was flowed onto the chip at a flow rate of 30 μL/min. The antigen-antibody association kinetics was followed for 2 minutes and the dissociation kinetics was followed for 10 minutes. The association and dissociation curves were fit to a 1:1 *Langmuir* binding model using BIA evaluation software.

The target of experiment [10] is T3, cynomolgus monkey PD-1-his protein …. Described as above.
Description: as §2

Experiment [11] has as its target T2, biotin-labeled human PD-1 Fc protein. Briefly: competition ELISA: blocks biotin PD-1-Fc binding to coated PD-L1-Fc. As to the method: (§3) The next day, plates were washed with wash buffer (PBS+0.05% Tween-20, PBST), and blocked with 5% non-fatty milk in PBST for 2 hours at 37° C. Plates were then washed again using wash buffer.
(§4) After incubation at 37° C. for 40 minutes, plates were washed for 4 times using wash buffer. […] Plates were washed again using wash buffer. Finally, TMB was added and the reaction was stopped using 1M H_2SO_4, and the absorbance was read at 450 nm. Data were analyzed using Graphpad Prism software and $IC50$ values were reported.

The target is the same in experiment [12]. Kind of experiment: capture ELISA: antibody captured by anti-IgG Fc, biotin PD-1-Fc 60 nM.
Experiment [13] has the same target. Kind of experiment: competition ELISA: blocks biotin PD-1-Fc binding to coated Nivolumab (competitor); partial blocking. How it is done:
as §1

In experiment [14] the target is T4, human PD-1 on PD-1 Effector Cell Line …. Kind of experiment: cell-based or functional assay. The source holds these as a separate data set.
Experiment [15] has as its target T2, biotin-labeled human PD-1 Fc protein. Briefly: PD1/PDL1 ligand blocking ELISA (coated PD-L1-Fc). How it is done: as §3, §4
The source holds these as a separate data set.

For experiment [16] the target is unchanged. Briefly: benchmark blocking ELISA (coated Nivolumab, self-competition).
The target is the same in experiment [17]. Briefly: capture binding ELISA, biotin PD-1-Fc.
For experiment [18] the target is unchanged. Briefly: benchmark blocking ELISA (coated Nivolumab, self-competition). The source holds these as a separate data set.
The target is the same in experiment [19]. Kind of experiment: competition ELISA: blocks biotin PD-1-Fc binding to coated Nivolumab (self-competition).

Experimental findings from patent US12037395 (IMMVIRA, dated 2024) are described below.

The Kd is the equilibrium constant for the complex coming apart. For orientation: IC50 means the concentration that gives 50% inhibition. What is called EC50 is the concentration needed to bring the measured effect to its halfway point. In general, koff refers to a measure of how fast the partners let go of each other. By kon is commonly meant the rate constant with which the complex forms.

B1: humanized anti-PD-1 antibody huC1E1-V1 (antibody, human IgG1, kappa)
heavy: not shown
light: EIVLTQSPATLSLSPGERATLSCRASKSVDDSGISFMHWFQQKPGQPPRLLIYAASNQGSGVPARFSGSGSGTDFTLTISSLEPEDFAVYFCHQTKEVPWTFGQGTKVEIKRTVAAPSVFIFPPSDEQLKSGTASVVCLLNNFYPREAKVQWKVDNALQSGNSQESVTEQDSKDSTYSLSSTLTLSKADYEKHKVYACEVTHQGLSSPVTKSFNRGEC
notes: Human IgG1/kappa, expressed in 293F cells
For B1, in experiment [1], the Kd came to 3880 pM.

B2: humanized anti-PD-1 antibody huC1E1-V4 (antibody, human IgG1, kappa, V domains shown)
VH: EVQLVESGGGVVQPGRSLRLSCAASGFTFSSYLMSWVRQAPGKGLEWVATISGGGGDTYFPDSVKGRFTISRDNSKNTLYLQMNSLRAEDTAVYYCVRFGGAGYYWYFDVWGAGTLVTVSS
VL: EIVLTQSPATLSLSPGERATLSCRASKSVDDSGISFMHWFQQKPGQAPRLLIYAASNQGSGVPARFSGSGSGTDFTLTISSLEPEDFAVYFCHQTKEVPWTFGQGTKVEIKR
notes: as for B1
As for B2, in experiment [1], the equilibrium dissociation constant (Kd) was 2950 pM.

B3: humanized anti-PD-1 antibody huC1E1-V6 (antibody, human IgG1, kappa, V domains shown)
VH: EVQLVESGGGVVQPGRSLRLSCAASGFTFSSYLMSWVRQAPGKGLEWVATISGGGGDTYFPDSVKGRFTISRDNSKNTLYLQMNSLRAEDTAVYYCVRFGGAGYYWYFDVWGAGTLVTVSS
VL: EIVLTQSPATLSLSPGERATLSCRASKSVDDSGISFMHWFQQKPGQPPRLLIYAASNQGSGVPARFSGSGSGTDFTLTISSLEPEDFAVYYCHQTKEVPWTFGQGTKVEIKR
notes: as for B1
For B3, the Kd in experiment [1] was determined as 3050 pM.

B4: humanized anti-PD-1 antibody huC1E1-V10 (antibody, human IgG1, kappa)
heavy: not shown
light: EIVLTQSPATLSLSPGERATLSCRASKSVDDSGISFMHWYQQKPGQAPRLLIYAASNQGSGIPARFSGSGSGTDFTLTISSLEPEDFAVYYCHQTKEVPWTFGQGTKVEIKRTVAAPSVFIFPPSDEQLKSGTASVVCLLNNFYPREAKVQWKVDNALQSGNSQESVTEQDSKDSTYSLSSTLTLSKADYEKHKVYACEVTHQGLSSPVTKSFNRGEC
notes: as for B1
On to B4, for which the IC50 in experiment [2] turned out to be 880 pM; in experiment [5], 350 pM. Also, the figures for the Kd in experiment [3], in experiment [4] and in [1] were 968 pM, 892 pM and 968 pM, respectively. Also, in [6], the “Cell-based reporter assay (EC50, nM)” value is 11.3 nM. Also, the EC50 in [7] was 340 pM; in experiment [8], 440 pM.

B5: humanized anti-PD-1 antibody huC1E1-V3 (antibody, human IgG1, kappa, V domains shown)
VH: EVQLVESGGGVVQPGRSLRLSCAASGFTFSSYLMSWVRQAPGKGLEWVATISGGGGDTYFPDSVKGRFTISRDNSKNTLYLQMNSLRAEDTAVYYCVRFGGAGYYWYFDVWGAGTLVTVSS
VL: EIVLTQSPATLSLSPGERATLSCRASKSVDDSGISFMHWYQQKPGQPPRLLIYAASNQGSGVPARFSGSGSGTDFTLTISSLEPEDFAVYFCHQTKEVPWTFGQGTKVEIKR
notes: as for B1
Take B5: the Kd in experiment [1] was 4520 pM.

B6: humanized anti-PD-1 antibody huC1E1-V7 (antibody, human IgG1, kappa)
heavy: not shown
light: EIVLTQSPATLSLSPGERATLSCRASKSVDDSGISFMHWYQQKPGQAPRLLIYAASNQGSGIPARFSGSGSGTDFTLTISSLEPEDFAVYYCHQTKEVPWTFGQGTKVEIKRTVAAPSVFIFPPSDEQLKSGTASVVCLLNNFYPREAKVQWKVDNALQSGNSQESVTEQDSKDSTYSLSSTLTLSKADYEKHKVYACEVTHQGLSSPVTKSFNRGEC
notes: as for B1
Regarding B6, the Kd in experiment [1] is 6360 pM.

B7: humanized anti-PD-1 antibody huC1E1-V2 (antibody, human IgG1, kappa)
heavy: not shown
light: EIVLTQSPATLSLSPGERATLSCRASKSVDDSGISFMHWFQQKPGQPPRLLIYAASNQGSGVPARFSGSGSGTDFTLTISSLEPEDFAVYFCHQTKEVPWTFGQGTKVEIKRTVAAPSVFIFPPSDEQLKSGTASVVCLLNNFYPREAKVQWKVDNALQSGNSQESVTEQDSKDSTYSLSSTLTLSKADYEKHKVYACEVTHQGLSSPVTKSFNRGEC
notes: as for B1
With B7, the Kd in experiment [1] is 2490 pM.

B8: humanized anti-PD-1 antibody huC1E1-V5 (antibody, human IgG1, kappa, V domains shown)
VH: EVQLVESGGGVVQPGRSLRLSCAASGFTFSSYLMSWVRQAPGKGLEWVATISGGGGDTYFPDSVKGRFTISRDNSKNTLYLQMNSLRAEDTAVYYCVRFGGAGYYWYFDVWGAGTLVTVSS
VL: EIVLTQSPATLSLSPGERATLSCRASKSVDDSGISFMHWFQQKPGQPPRLLIYAASNQGSGIPARFSGSGSGTDFTLTISSLEPEDFAVYFCHQTKEVPWTFGQGTKVEIKR
notes: as for B1
With B8, in [1], the Kd worked out at 3370 pM.

B9: mouse anti-PD-1 monoclonal antibody 2G2 (antibody, mouse IgG1, kappa, V domains shown)
VH: EVQLVESGGDLVKPGGSLKLSCTASGFTFSYYGMSWVRQTPDKRLEWVATISSGSSFTYSPDSVKGRFTISRDNAKNTLYLQMNSLKSEDTAIYYCTRREGIYDASWDYSMDYWGQGTSVTVSS
VL: DVLMTQTPLSLPVSLGDQASISCRSSQSIIRSNGNTYLEWYLQKPGQSPKLLIYKVSNRFSGVPDRFSGSGSGTDFTLKISRVEADDLGLYYCFQGSHVPWTFGGGTKLEIKR
notes: Purified from hybridoma; Constant regions tied only generically to 'mouse antibodies'; also called Clone 2G2
With B9, in experiment [9], the Kd is 2680 pM, the koff was 0.000436 s⁻¹ and the on-rate (kon) was found to be 163000 M⁻¹ s⁻¹. In [10], the Kd came out at 13000 pM, the koff came to 0.00183 s⁻¹ and the kon amounted to 140000 M⁻¹ s⁻¹. Further, the IC50 in experiment [11] is 320 pM. For the same molecule, the EC50 in experiment [12] was determined as 180 pM. For the same molecule, the half-maximal inhibitory concentration (IC50) in [13] was 14400 pM. Moreover, in experiment [14], the “Reporter Activation (EC50, nM) human PD-1 cell (NFAT-luc)/human PD-L1 cell” value worked out at 17.9 nM.

B10: Nivolumab (OPDIVO®) (antibody, V domains shown)
VH: QVQLVESGGGVVQPGRSLRLDCKASGITFSNSGMHWVRQAPGKGLEWVAVIWYDGSKRYYADSVKGRFTISRDNSKNTLFLQMNSLRAEDTAVYYCATNDDYWGQGTLVTVSS
VL: EIVLTQSPATLSLSPGERATLSCRASQSVSSYLAWYQQKPGQAPRLLIYDASNRATGIPARFSGSGSGTDFTLTISSLEPEDFAVYYCQQSSNWPRTFGQGTKVEIK
Turning to B10, the IC50 in experiment [2] turned out to be 410 pM; in [15] it was 410 pM; in [16] it was 380 pM; in experiment [18], 380 pM; in experiment [19], 3790 pM. Further, the EC50 in experiment [7] stood at 370 pM; in experiment [12], 210 pM; in experiment [17] it was 370 pM.
